Data reported in PMC9348577, “Dimerization of kringle 1 domain from hepatocyte growth factor/scatter factor provides a potent MET receptor agonist” (Life Science Alliance, 2022).

What was measured:
MET567 [1] = target: T1, MET567 (human, UniProt P08581 25-567); assay: SEC-SAXS; K1K1 in complex with MET567 injected on Superdex 200 PC 3.2/300 Increase on line with SAXS (ESRF BM29); 25 mM Tris (pH 7.4), 150 mM NaCl; conditions: both partners purified
T1 construct: human MET receptor fragment MET567 comprising the N-terminal SEMA domain and the cysteine-rich/PSI domain; as I recall it spans residues 25-567 of MET; also called MET567 receptor fragment; MET567 fragment; source: CHO Lec 3.2.8.1 cells, purified as described in Gherardi et al (2003)

MET567 [2] = target: T1, MET567; assay: SPR; Biacore T200; MET567 immobilised at low density (515 RU) by amine coupling on a CM5 chip; 25°C, PBST (PBS + 0.05% Tween 20), 30 ul/min, 300-s injections to equilibrium; apparent KD from the binding isotherm; conditions: both partners purified

T1 sequence (P08581 25-567): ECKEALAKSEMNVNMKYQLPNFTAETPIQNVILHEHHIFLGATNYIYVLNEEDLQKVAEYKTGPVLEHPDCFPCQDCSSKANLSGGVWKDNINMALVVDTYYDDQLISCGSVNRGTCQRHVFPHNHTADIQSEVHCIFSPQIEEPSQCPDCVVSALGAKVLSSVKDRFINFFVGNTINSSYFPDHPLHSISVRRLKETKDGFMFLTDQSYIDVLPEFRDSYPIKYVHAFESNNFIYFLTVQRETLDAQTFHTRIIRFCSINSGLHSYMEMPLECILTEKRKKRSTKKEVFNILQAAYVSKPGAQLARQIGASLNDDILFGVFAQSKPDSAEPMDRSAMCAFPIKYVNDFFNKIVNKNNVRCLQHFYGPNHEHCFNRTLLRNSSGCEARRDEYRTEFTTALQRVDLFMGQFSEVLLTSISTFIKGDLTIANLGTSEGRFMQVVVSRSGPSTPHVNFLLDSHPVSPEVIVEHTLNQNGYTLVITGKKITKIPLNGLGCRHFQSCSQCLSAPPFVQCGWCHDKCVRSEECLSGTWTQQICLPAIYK

stoichiometry N (MET567 [1]) | Kd (MET567 [2]) | Binder
1 | 205 nM | K1K1 (ligand, Intra-kringle disulphides (three per kringle). The initiator Met of the MAIRN construct is absent from the 7OCL entity, so paper numbering = entity number + 1. Layout: (M)AIRN + HGF 128-206 + SEVE + …) AIRNCIIGKGRSYKGTVSITKSGIKCQPWSSMIPHEHSFLPSSYRGKDLQENYCRNPRGEEGGPWCFTSNPEVRYEVCDIPQCSEVECIIGKGRSYKGTVSITKSGIKCQPWSSMIPHEHSFLPSSYRGKDLQENYCRNPRGEEGGPWCFTSNPEVRYEVCDIPQCSEVE
– | 200 nM | NK1 (natural protein, human, UniProt P14210 28-209, looked up, human NK1, splice variant of HGF/SF with the N-domain and the first kringle domain (K1), residues 28-209; also called recombinant human NK1 protein; wild-type NK1; source: Pichia pastoris, purified as described in Chirgadze et al (1999)) YAEGQRKRRNTIHEFKKSAKTTLIKIDPALKIKTKKVNTADQCANRCTRNKGLPFTCKAFVFDKARKQCLWFPFNSMSSGVKKEFGHEFDLYENKDYIRNCIIGKGRSYKGTVSITKSGIKCQPWSSMIPHEHSFLPSSYRGKDLQENYCRNPRGEEGGPWCFTSNPEVRYEVCDIPQCSEV
